Reference: US20210388105A1 (ELPISCIENCE SUZHOU BIOPHARMA, published 2021)
Changes are numbered by the printed parent chain.

Tests used:
Experiment in all cases: FACS, mutant-EGFP on HEK293F cells
[1] = biological target: T1, KW27-7 (human CD39 mutant, C-terminal EGFP) (human, UniProt P49961 1-510)
T1 construct: expressed on HEK293F cells; K188R and residues 190-206 substituted by KTPGGS; not shown: C-terminal EGFP fusion (vector pCMV3-GFPSpark)
T1 chain: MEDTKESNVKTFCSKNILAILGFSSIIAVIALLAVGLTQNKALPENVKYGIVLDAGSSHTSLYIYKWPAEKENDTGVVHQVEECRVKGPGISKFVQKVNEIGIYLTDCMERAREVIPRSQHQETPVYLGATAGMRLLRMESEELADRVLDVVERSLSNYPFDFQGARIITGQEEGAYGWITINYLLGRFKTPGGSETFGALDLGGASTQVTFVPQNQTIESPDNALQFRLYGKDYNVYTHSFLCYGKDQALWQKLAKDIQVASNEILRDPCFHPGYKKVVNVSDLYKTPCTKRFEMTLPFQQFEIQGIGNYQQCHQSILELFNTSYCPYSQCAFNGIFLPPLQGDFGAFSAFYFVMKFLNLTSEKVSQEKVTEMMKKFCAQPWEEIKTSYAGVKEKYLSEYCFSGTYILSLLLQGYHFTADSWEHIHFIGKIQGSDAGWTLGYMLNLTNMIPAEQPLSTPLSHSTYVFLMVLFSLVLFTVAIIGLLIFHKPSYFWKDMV
Procedure, shortened: (§1)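 Relative binding, the ratio of AlexaFluor647 to GFP signal, was read by flow cytometry with labelled anti-hIgG. Antibody ran as an 11-point, 3-fold series starting at 100 nM. Targets were CD39 mutant–GFP fusions expressed transiently in HEK293F cells for 3 days.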

[2] = biological target: T2, KW27-9 (human CD39 mutant, C-terminal EGFP) (human, UniProt P49961 1-510)
T2 construct: expressed on HEK293F cells; not shown: C-terminal EGFP fusion (vector pCMV3-GFPSpark)
T2 chain: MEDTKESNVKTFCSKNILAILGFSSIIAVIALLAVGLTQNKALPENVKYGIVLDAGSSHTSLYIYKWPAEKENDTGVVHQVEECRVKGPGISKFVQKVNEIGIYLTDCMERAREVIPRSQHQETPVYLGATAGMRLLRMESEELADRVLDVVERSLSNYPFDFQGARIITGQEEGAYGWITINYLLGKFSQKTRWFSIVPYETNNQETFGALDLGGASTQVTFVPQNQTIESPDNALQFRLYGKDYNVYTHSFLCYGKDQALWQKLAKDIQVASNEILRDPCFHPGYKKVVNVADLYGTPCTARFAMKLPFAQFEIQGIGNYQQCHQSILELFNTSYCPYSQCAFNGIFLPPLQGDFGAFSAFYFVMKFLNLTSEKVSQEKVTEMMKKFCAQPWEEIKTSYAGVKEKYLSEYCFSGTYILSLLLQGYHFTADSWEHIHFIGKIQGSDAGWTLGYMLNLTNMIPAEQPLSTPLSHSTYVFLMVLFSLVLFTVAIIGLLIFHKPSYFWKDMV
Procedure, shortened: as §1

[3] = biological target: T3, KW27-10 (human CD39 mutant, C-terminal EGFP) (human, UniProt P49961 1-510)
T3 construct: expressed on HEK293F cells; not shown: C-terminal EGFP fusion (vector pCMV3-GFPSpark)
T3 chain: T2 chain with K288E, K289A, V290A, A294S, G298K, A303K, A306E, K308T, A312Q, E315R
Procedure, shortened: as §1

[4] = biological target: T4, KW27-15 (human CD39 mutant, C-terminal EGFP) (human, UniProt P49961 1-510)
T4 construct: expressed on HEK293F cells; not shown: C-terminal EGFP fusion (vector pCMV3-GFPSpark)
T4 chain: T2 chain with A294S, G298K, A303K, A306E, K308T, A312Q, A402P, G403A, K405A, E406A
Procedure, shortened: as §1

Measured: binding result

B1: Antibody 9-8B (antibody, V domains shown)
VH: QIQLVQSGPELKKPGETVKISCKASGYTFTHYGMNWVKQAPGKGLKWMGWINTYTGELTYADDFKGRFAFSLETSASTAYLQINNLKNEDTATYFCARRAYYRYDYVMDYWGQGTSVTVSS
VL: DIVMTQSQKFMSTSVGDRVSVTCKASHNVGTNVAWYQQKPGQSPKALIYSASYRYSGVPGRFTGSGSGTDFTLTISNVQSEDLAEYFCHQYNNYPYTFGGGTKLEIK
binds: all assays above

B2: hu23.H5L5 (antibody, V domains shown)
VH: QVQLVQSGAEVKKPGASVKVSCKASGYNLKDTFLHWVRQAPGQGLEWMGRIDPANGNIKYDPKFQGRVTITADTSANTAYMELISLRSEDTAVYYCANSPYYYGSGYRIFDVWGQGTTVTVSS
VL: QIVLTQSPATLSLSPGERATLSCSAFSSVNYMHWYQQKPGQAPRLLIYTTSNLASGIPTRFSGSGSGTSYTLTISSLEPEDFAVYYCQQRSTYPFTFGQGTKLEIK
notes: humanized c23
binds: all assays above

B3: Antibody T895 (antibody, V domains shown)
VH: EVQLQQSGPELVKPGASVKMSCKASGYTFTDYNMHWVKQSHGRTLEWIGYIVPLNGGSTFNQKFKGRATLTVNTSSRTAYMELRSLTSEDSAAYYCARGGTRFAYWGQGTLVTVSA
VL: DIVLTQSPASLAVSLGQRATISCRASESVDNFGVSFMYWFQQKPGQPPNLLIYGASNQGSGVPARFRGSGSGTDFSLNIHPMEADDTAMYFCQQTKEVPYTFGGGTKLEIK
notes: also called 31895
binds: all assays above

B4: c34 (antibody, V domains shown)
VH: EIQVQQSGPELVKPGASVKVSCKASGYSFTDYNMYWVKQSHGKSLEWIGFIDPYNGYTSYNQKFKGKATLTIDKSSSTAFMHLNSLTSEDSAVYYCAIYGYDDAYYFDYWGQGTTLTVSS
VL: QIVLTQSPAIMSASPGEKVTITCSATSSVSYMHWFRQKPGTSPKLWIYSTSNLASGVPARFSGSGSGTSYSLTISRMAAEDAATYYCQQRITYPFTFGSGTKLEIT
notes: its making is not described; also called chimeric antibody c34
binds: all assays above

B5: c35 (antibody, V domains shown)
VH: EVRLQQSGAELVKPGASVKLSCTASGFNIEDTYVHWMKQRPEQGLEWIGRIDPAIDNSKYDPKFQGKATITAVSSSNTAYLQLSSLTSEDTAVYYCALYDGYNVYAMDYWGQGTSVTVSS
VL: DIVMTQAAFSNPVTLGTSASISCRSSKNLLHSNGITYLYWYLQRPGQSPQLLIYRASTLASGVPNRFSGSESGTDFTLRISRVEAEDVGVYYCAQLLELPHTFGGGTKLEIK
notes: its making is not described; also called chimeric antibody c35
binds: all assays above
